{"source": "paper PMC8056383", "molecular_target": "23C-176C double-cysteine mutant of full-length ClpB, labelled with Alexa Fluor 488 and Alexa Fluor 594 (Thermus thermophilus) (UniProt Q9RA63)", "sequence (Q9RA63 whole entry R23C/D176C)": "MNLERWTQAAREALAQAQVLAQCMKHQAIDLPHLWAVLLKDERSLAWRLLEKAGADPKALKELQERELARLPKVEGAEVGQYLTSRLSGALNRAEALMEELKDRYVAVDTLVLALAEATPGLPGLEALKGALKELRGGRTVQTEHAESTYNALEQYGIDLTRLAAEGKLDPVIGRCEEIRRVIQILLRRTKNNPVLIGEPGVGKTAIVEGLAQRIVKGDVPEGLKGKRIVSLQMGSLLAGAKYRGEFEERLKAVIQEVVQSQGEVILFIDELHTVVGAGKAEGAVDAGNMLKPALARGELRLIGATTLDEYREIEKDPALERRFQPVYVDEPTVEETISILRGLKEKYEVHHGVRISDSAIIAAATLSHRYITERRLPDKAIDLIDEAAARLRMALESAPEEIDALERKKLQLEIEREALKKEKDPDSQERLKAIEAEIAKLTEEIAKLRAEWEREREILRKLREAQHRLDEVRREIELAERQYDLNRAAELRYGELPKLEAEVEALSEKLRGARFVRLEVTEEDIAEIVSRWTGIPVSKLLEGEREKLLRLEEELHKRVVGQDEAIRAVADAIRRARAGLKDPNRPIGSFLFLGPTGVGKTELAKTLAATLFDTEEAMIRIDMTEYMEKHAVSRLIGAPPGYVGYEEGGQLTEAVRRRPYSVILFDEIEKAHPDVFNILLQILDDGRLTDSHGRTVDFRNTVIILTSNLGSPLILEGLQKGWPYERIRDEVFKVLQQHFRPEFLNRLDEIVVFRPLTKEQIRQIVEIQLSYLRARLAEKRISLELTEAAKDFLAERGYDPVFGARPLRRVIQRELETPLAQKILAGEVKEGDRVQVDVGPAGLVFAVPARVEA", "data": [{"substance": "κ-casein (from UniProt P02668 22-190) (natural protein)", "values": [{"measurement": "ATPase activity of fully labeled 23C-176C ClpB with 25 μM κ-casein relative to basal", "result": 3.1, "unit": "fold"}]}]}
